*: point of attachment. FITC = O=C1OC2(c3ccc(O)cc3Oc3cc(O)ccc32)c2ccc(NC(=S)*)cc21
Tests used:
ER peptide mimic = assay: immunostaining of ER peptide mimic spots on matrix, semi-quantitative colour score
1D5 monoclonal antibody = assay: Peptide ELISA of synthetic ER peptides with 1D5; format: binding, mouse; conditions: compared among ER peptides 3, 4 and 6
From the text: Three synthetic peptides (designated as ER peptide 3, ER peptide 4, and ER peptide 6), that are representative of above consensus phage sequence, were synthesized (by SynPep Labs, Dublin, Calif. and Bachem Labs, King of Prussia, Pa.) and tested for specificity/affinity to 1D5 monoclonal antibody.

Staining intensity (1-4+) (ER peptide mimic) | Substance | peptide ELISA signal (1D5 monoclonal antibody)
4 1-4+ scale | anti-human estrogen receptor mouse monoclonal antibody 1D5 | –
– | Ac-DFQCPYVECVVNAPGGK (FITC) GK-CONH2 (Ac-DFQCPYVECVVNAPGGK(FITC)GK-NH2; cysteine pairing not given here) [ER peptide 3] | highest signal
